Experimental data from US9395368B2, “Methods, agents and peptides for inducing an immune response to matrix metalloproteinase-2 expressing tumors” (New York University, priority 2010, dated 2016).

Key:
Format in all cases: cell-based, human
[1] = test system: CD40, CD80, CD83, CD86, HLA-DR and CCR7 on DCs; assay: Expression of maturation markers by DCs
Method: Antibodies. Allophycocyanin-conjugated antibody to CCR-7 (150503) was purchased from R&D Systems. Unconjugated (10 μg/mL for blocking experiments) or phycoerythrin-conjugated antibody to OX40L (11C3.1) was from Biolegend. Blocking antibody to IL-4 (8F12; 10 μg/mL) was from Acris. Antibodies to human Vβ chains covering 70% of the repertoire (10Test Beta Mark; Beckman Coulter) were used according to the manufacturer's instructions. Fluorescein isothiocyanate-conjugated antibody to IL-12p35/IL-12p70 (B-T21) and IFNAR1 (EP899Y) were from Abcam. Phycoerythrine-conjugated antibodies to IL-12p40/IL-12p70 (C8.6), IL-10 (B-T10), CD203c (FR3-16A11) were from Miltenyi Biotec. Blocking antibody to HLA-DQ (SPVL3; 20 μg/mL) was from NeoMarkers. […]
(§1) Dendritic cell preparation and activation. […] Immature DCs were harvested on day 5 and matured using poly(I:C) at 5 μg/mL/10^6 DCs (Amersham) Secretion of IL-12p70, TNFα, IL-1β, IL-6, IL-8 and IL-10 was assessed on both immature and mature DCs using the Human Inflammatory Cytokine Cytometric Bead Array (BD Pharmingen).
We next evaluated whether DCs could be involved in the polarization of MMP-2-specific CD4^+ T cells.

[2] = test system: IL-12p70 production by DCs; assay: IL-12p70 production by poly(I:C)-matured DCs (CBA); conditions: DCs stimulated with poly(I:C)
Method: (§2) Immature DCs were incubated with MMP-2 (0.5 μg/mL or 5 μg/mL) and poly(I:C)-matured 1 h later. IL-12 levels were measured 16 h later. (A) Results are represented as a percentage of IL-12p70 levels, measured by CBA, produced when DCs were incubated with poly(I:C) only (n=11). (B) For intracellular staining of IL-12p35 and IL-12p40 chains, Brefeldin A was added 4 h after poly(I:C) activation and cells were stained after an additional 12 h incubation. Numbers in the upper right quadrants are the percentages of each population for a representative donor (n=3). (C,D) Immature DCs were incubated with MMP-2 for 1 h (5 μg/mL) before poly(I:C) maturation. Intracellular staining of phosphorylated (Y701) STAT1 (P-STAT1) was performed 3 h later. A representative donor (C) and results for all 3 donors (D) are shown. […] (E) Immature DCs were incubated with MMP-2 and poly(I:C)-matured 1 h later. IFNβ levels were measured by ELISA 16 h later. Results are represented as a percentage of IFNβ levels produced when DCs were incubated with poly(I:C) only (n=9). (F,G) 10^6DCs/lane were treated with 0.1 μg MMP-2 or controls. Poly(I:C) was added 1 h later. IFNAR1 protein expression was detected the next day by Western blot analysis using a rabbit monoclonal antibody. A representative donor (F) and results for all 7 donors (G) are shown. (H) The rhIFNAR1 (5 μg; ≈110 kD) was incubated overnight with 0.3 μg MMP-2 before performing Western blot analysis for IFNAR1. The second band (around 90 kD) and the third band (25 kD) very likely correspond to either a degraded form of the protein still recognized by the antibody or a contaminant present in the commercial protein preparation and non-specifically recognized by the antibody. MMP-2 enzymatic activity was controlled (FIG. 13C-D). […]
as §1

[3] = test system: OX40L expression on DCs; assay: OX40L expression on DCs by surface staining; conditions: immature and poly(I:C)-matured DCs, n=9, 24 h
Method: Immature and poly(I:C)-matured DCs were incubated with active or HI MMP-2 (0.5 μg/mL or 5 μg/mL) for 24 h. MMP-2 enzymatic activity was controlled (FIG. 13C-D). OX40L expression was assessed by surface staining (A) Histogram plots are shown for representative donor HD1228. Isotype control is represented in tinted gray. (B) Mean fluorescent intensities are represented for all 9 donors tested. […] P values≦0.0167 (*) were considered statistically significant using a Bonferroni correction for 3 comparisons for each DC type. See also FIG. 12.
Dendritic cell preparation and activation. PBMCs were purified from healthy—(HD) or cord blood—(CB) donors and plated at 40×10^6 cells/10 mL/dish in complete IMDM with 5% PHS. Cells were allowed to adhere for 2 h at 37° C. Non-adherent cells were removed. The monocyte-enriched fraction was supplemented with 100 UI/mL rhGMCSF and 300 UI/mL rhIL-4 (R&D Systems) on days 0, 2 and 4. Immature DCs were harvested on day 5 and matured using poly(I:C) at 5 μg/mL/10^6 DCs (Amersham) Secretion of IL-12p70, TNFα, IL-1β, IL-6, IL-8 and IL-10 was assessed on both immature and mature DCs using the Human Inflammatory Cytokine Cytometric Bead Array (BD Pharmingen).

[4] = test system: phosphorylated (Y701) STAT1; assay: Intracellular staining of phosphorylated (Y701) STAT1 in DCs; conditions: DCs preincubated 1 h (5 μg/mL) prior to poly(I:C), 3 h
Method: as §2, with “(F,G) 10^6DCs/lane were treated with 0.1 μg MMP-2 or controls. Poly(I:C) was added 1 h later.” left out, “antibody.” for “antibody. A representative donor (F) and results for all 7 donors (G) are shown. (H) The rhIFNAR1 (5 μg; ≈110 kD) was incubated overnight with 0.3 μg MMP-2 before performing Western blot analysis for IFNAR1. The second band (around 90 kD) and the third band (25 kD) very likely correspond to either a degraded form of the protein still recognized by the antibody or a contaminant present in the commercial protein preparation and non-specifically recognized by the antibody. MMP-2 enzymatic activity was controlled (FIG. 13C-D).”
Intracellular staining T-bet and GATA-3 expression was measured on resting T cells. […] Cytokine production by T cells was also assessed by intracellular staining T cells were stimulated with 2 μM overlapping peptides. […]

B1: inactivated MMP-2: MMP-2 enzyme inactivated either by heating or by addition of the MMP-2 inhibitor III; mode not stated at the place (protein, listed as Homo sapiens)
chain: MEALMARGALTGPLRALCLLGCLLSHAAAAPSPIIKFPGDVAPKTDKELAVQYLNTFYGCPKESCNLFVLKDTLKKMQKFFGLPQTGDLDQNTIETMRKPRCGNPDVANYNFFPRKPKWDKNQITYRIIGYTPDLDPETVDDAFARAFQVWSDVTPLRFSRIHDGEADIMINFGRWEHGDGYPFDGKDGLLAHAFAPGTGVGGDSHFDDDELWTLGEGQVVRVKYGNADGEYCKFPFLFNGKEYNSCTDTGRSDGFLWCSTTYNFEKDGKYGFCPHEALFTMGGNAEGQPCKFPFRFQGTSYDSCTTEGRTDGYRWCGTTEDYDRDKKYGFCPETAMSTVGGNSEGAPCVFPFTFLGNKYESCTSAGRSDGKMWCATTANYDDDRKWGFCPDQGYSLFLVAAHEFGHAMGLEHSQDPGALMAPIYTYTKNFRLSQDDIKGIQELYGASPDIDLGTGPTPTLGPVTPEICKQDIVFDGIAQIRGEIFFFKDRFIWRTVTPRDKPMGPLLVATFWPELPEKIDAVYEAPQEEKAVFFAGNEYWIYSASTLERGYPKPLTSLGLPPDVQRVDAAFNWSKNKKTYIFAGDKFWRYNEVKKKMDPGFPKLIADAWNAIPDNLDAVVDLQGGGHSYFFKGAYYLKLENQSLKSVKFGSIKSDWLGC
modifications: heat or inhibitor inactivated
expression levels of maturation markers CD40, CD80, CD83, CD86, HLA-DR and CCR7 [1]: not significantly affected | reduction in IL-12 [2]: not observed | OX40L expression on DCs [3]: significantly increased | STAT1 phosphorylation [4]: not
